According to patent publication US20130096072A1 (Genentech, published 2013):
Bridges are numbered along the chain shown (N, C = ends). Where no end group is shown, it is not given here. [ ]: non-standard residue; d: D form. Hyp = O=C(O)[C@@H]1C[C@@H](O)CN1

B1: IVdG.14 peptide (peptide)
peptide: IV[dD]GYPWWMDV-NH2
notes: Printed as I V d G Y P W W M D V, d = D-aspartic acid
B2: ZAP.53 phage clone (ZAPtide Library) (peptide)
chain: IVGGYPWWVDV
modifications: not fully specified
notes: not shown: M13 gene VIII coat protein fused after the peptide
B3: ZAP.09 phage clone (ZAPtide Library) (peptide)
chain: H-IVGGDYWWVPI
modifications: not fully specified
notes: as for B2
B4: ZAP.03 phage clone of Table 4B (ZAPtide Library, SEQ ID NO:129) (peptide)
chain: IVGGDFYSSYW
modifications: not fully specified
notes: as for B2
B5: ZAP.06 phage clone (ZAPtide Library) (peptide)
chain: IVGGDGMPWWI
modifications: not fully specified
notes: as for B2
B6: IVGG.14 phage clone (ZAPtide Library) (peptide)
chain: IVGGYPWWMDV
modifications: not fully specified
notes: as for B2
B7: ZAP.43 phage clone (ZAPtide Library) (peptide)
chain: IVGGDPVYVLY
modifications: not fully specified
notes: as for B2
B8: ZAP.13 phage clone (ZAPtide Library) (peptide)
chain: IVGGYPWWITG
modifications: not fully specified
notes: as for B2
B9: ZAP.30 phage clone (ZAPtide Library) (peptide)
chain: IVGGYPAWMEY
modifications: not fully specified
notes: as for B2
B10: ZAP.04 phage clone (ZAPtide Library) (peptide)
chain: IVGGSDFPWWV
modifications: not fully specified
notes: as for B2
B11: ZAP.52 phage clone (ZAPtide Library) (peptide)
chain: IVGGLWEMWVT
modifications: not fully specified
notes: as for B2
B12: ZAP.65 phage clone (ZAPtide Library) (peptide)
chain: IVGGEPAYWYW
modifications: not fully specified; also: fused before M13 gene VIII coat protein, linker not given here
notes: as for B2
B13: ZAP.11 phage clone (ZAPtide Library) (peptide)
chain: IVGGHPMSPFS
modifications: not fully specified
notes: as for B2
B14: ZAP.15 phage clone (ZAPtide Library) (peptide)
chain: IVGGDPWWFVS
modifications: not fully specified
notes: as for B2
B15: ZAP.67 phage clone (ZAPtide Library) (peptide)
chain: IVGGPHKAFLL
modifications: not fully specified; also: fused before M13 gene VIII coat protein, linker not given here
notes: as for B2
B16: ZAP.32 phage clone (ZAPtide Library) (peptide)
chain: IVGGEPVWYVW
modifications: not fully specified
notes: as for B2
B17: ZAP.91 phage clone (ZAPtide Library) (peptide)
chain: IVGGYPVYFLN
modifications: not fully specified; also: fused before M13 gene VIII coat protein, linker not given here
notes: as for B2
B18: ZAP.24 phage clone (ZAPtide Library) (peptide)
chain: IVGGCKRSYWE
modifications: not fully specified
notes: as for B2
B19: ZAP.29 phage clone (ZAPtide Library) (peptide)
chain: IVGGTRCNDWI
modifications: not fully specified
notes: as for B2
B20: ZAP.39 phage clone (ZAPtide Library) (peptide)
chain: IVGGSACLIAM
modifications: not fully specified
notes: as for B2
B21: ZAP.01a phage clone (ZAPtide Library) (peptide)
chain: IVGGVRCWVSN
modifications: not fully specified
notes: Not the 15-mer ZAP.01; not shown: M13 gene VIII coat protein fused after the peptide
B22: ZAP.54 phage clone (ZAPtide Library) (peptide)
chain: IVGGLDVEYEL
modifications: not fully specified
notes: as for B2
B23: ZAP.63 phage clone (ZAPtide Library) (peptide)
chain: IVGGMRLCGYI
modifications: not fully specified; also: fused before M13 gene VIII coat protein, linker not given here
notes: as for B2
B24: ZAP.25 phage clone (ZAPtide Library) (peptide)
chain: IVGGNKIWSVS
modifications: not fully specified
notes: as for B2
B25: ZAP.50 phage clone (ZAPtide Library) (peptide)
chain: IVGGDYYWVVQ
modifications: not fully specified
notes: as for B2
B26: ZAP.45 phage clone (ZAPtide Library) (peptide)
chain: IVGGKWQRKRV
modifications: not fully specified
notes: as for B2
B27: ZAP.18 phage clone (ZAPtide Library) (peptide)
chain: IVGGFVFWCDQ
modifications: not fully specified
notes: as for B2
B28: ZAP.03S peptide (peptide)
peptide: IIGGSPYWMDREESI-NH2
notes: ZAP.03 with both cysteines changed to serine; no disulfide

How the values were obtained:
[1] = target: scHGF (non-cleavable form of full-length pro-HGF with a mutated cleavage site) (human, UniProt P14210 32-728); assay: cell-based or functional assay
Chain of scHGF (non-cleavable form of full-length pro-HGF with a mutated cleavage site) (P14210 32-728 limits assumed, stated change not applied): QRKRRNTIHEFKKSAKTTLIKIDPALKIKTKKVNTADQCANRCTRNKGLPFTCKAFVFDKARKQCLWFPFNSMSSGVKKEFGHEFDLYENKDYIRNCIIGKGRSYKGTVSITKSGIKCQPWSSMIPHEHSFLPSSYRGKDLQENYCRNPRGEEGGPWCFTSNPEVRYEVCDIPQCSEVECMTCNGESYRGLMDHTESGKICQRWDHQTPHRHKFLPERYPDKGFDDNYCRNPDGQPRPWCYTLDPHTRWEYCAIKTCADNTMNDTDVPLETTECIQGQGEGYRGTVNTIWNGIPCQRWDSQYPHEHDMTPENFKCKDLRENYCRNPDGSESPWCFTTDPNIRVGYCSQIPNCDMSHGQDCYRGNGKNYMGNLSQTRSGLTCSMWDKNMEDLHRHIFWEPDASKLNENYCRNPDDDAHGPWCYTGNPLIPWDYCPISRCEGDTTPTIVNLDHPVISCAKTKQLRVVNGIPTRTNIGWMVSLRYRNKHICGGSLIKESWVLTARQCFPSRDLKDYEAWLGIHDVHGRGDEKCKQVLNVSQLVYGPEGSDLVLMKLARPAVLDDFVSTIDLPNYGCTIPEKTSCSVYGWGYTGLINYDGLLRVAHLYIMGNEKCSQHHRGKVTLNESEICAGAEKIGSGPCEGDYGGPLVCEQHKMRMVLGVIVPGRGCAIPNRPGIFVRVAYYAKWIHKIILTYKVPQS

[2] = target: T1, scHGF β-chain (zymogen-like HGF β, residues Asn479 to Ser728, R494E, C-terminal His-tag) (human, UniProt P14210 479-728); assay: BLI scHGF β activation/Met binding assay
T1 construct: Expressed in insect cells; also called zHGF β; zymogen-like form of HGF β; not shown: C-terminal His-tag
T1 sequence (P14210 479-728 R494E): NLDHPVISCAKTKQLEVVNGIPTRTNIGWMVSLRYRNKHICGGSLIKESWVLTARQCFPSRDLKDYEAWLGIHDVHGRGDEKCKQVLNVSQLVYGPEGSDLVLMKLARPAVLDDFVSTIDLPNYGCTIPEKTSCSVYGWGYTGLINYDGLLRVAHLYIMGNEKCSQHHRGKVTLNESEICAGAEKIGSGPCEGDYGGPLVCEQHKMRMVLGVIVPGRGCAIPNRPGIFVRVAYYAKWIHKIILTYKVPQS

[3] = target: T1, scHGF β-chain (zymogen-like HGF β, …); assay: BLI (OctetRed) scHGF β activation/Met binding assay: peptide titrated into 0.5 µM scHGF β over biotinylated Met Sema/PSI on streptavidin tips; steady-state single-site fit
Protocol: (§1) Met binding assays were carried out utilizing the OctetRed™ biolayer interferometry instrument (ForteBio, Inc.) as reported previously (Landgraf, K. E. et al. (2010) J Biol Chem 285: 40362-72). Biotinylated Met ECD (Sema/PSI-AviTag) was captured on the surface of streptavidin optical sensor tips (SA biosensors, ForteBio, Inc.), and transferred into buffer containing 0.5 μM scHGF β-chain variants in the presence of increasing concentration of indicated peptides. Association and dissociation reactions were monitored to ensure reversible binding between scHGF β and Met. Binding was quantified using the steady-state levels of surface response from the association reaction. Equilibrium constants were derived by least squares fitting of the titration data to a single-site binding equation. Errors reported are ±stdev of n=3 independent experiments.
Based on the finding that the consensus ZAPs contain features consistent with binding and inserting into the activation pocket, several related peptides were synthesized and utilized in a previously established scHGF β activation assay to assess their affinities and ability to active Met binding (Landgraf, K. E. et al. (2010) J Biol Chem 285: 40362-72). Since scHGF β can only weakly interact with the Met Sema-PSI domain compared to the active HGF β form, biolayer interferometry was used in the activation assay to measure the ability of a peptide to directly enhance the binding affinity of scHGF β to a streptavidin sensor surface coated with biotinylated Met (Landgraf, K. E. et al. (2010) J Biol Chem 285: 40362-72). Thus, titration of an activator peptide should result in a significant increase in the surface response signal due to enhanced scHGF β binding to Met.

[4] = target: T1, scHGF β-chain (zymogen-like HGF β, …); assay: cell-based or functional assay
[5] = target: T1, scHGF β-chain (zymogen-like HGF β, …); assay: biolayer interferometry: biotinylated Met Sema/PSI on streptavidin tips, 0.5 µM scHGF β in solution, peptide titrated; steady-state surface response of scHGF β binding to Met
Protocol: as §1
Based on the finding that the consensus ZAPs contain features consistent with binding and inserting into the activation pocket, several related peptides were synthesized and utilized in a previously established scHGF β activation assay to assess their affinities and ability to active Met binding (Landgraf, K. E. et al. (2010) J Biol Chem 285: 40362-72). […]

[6] = target: T1, scHGF β-chain (zymogen-like HGF β, …); assay: phage panning against scHGF β (4 rounds) and phage ELISA
Excerpt: The pfam database (Finn, R. D. et al. (2010) Nucleic Acids Res 38: D211-22) was used to derive a consensus sequence for trypsin/chymotrypsin-like serine proteases and identify the N-terminal IVGG motif. Peptide libraries were synthesized as fusions to the gene VIII coat protein of M13 phage and panned against scHGF β as previously described (Tonikian, R. et al. (2007) Nat Protoc 2: 1368-86; Sidhu, S. S. et al. (2000) Methods Enzymol. 328:333-63). […] Single phage clones were picked, grown overnight and a standard phage ELISA was used to verify target specific binding. Once the IVGG.14 sequence was identified, soft randomization on gene VIII was performed on positions X₂-X₁₁.

Molecule	binding result [6]	also measured
Protein C (zymogen)	–	initial rate of hydrolysis (Vi) of Ile-Pro-Arg-pNA, 100 nM enzyme, 2 mM substrate (IVGG.147A peptide): the initial rate of substrate hydrolysis (Vi) for both prethrombin-2 and Protein C zymogens significantly increased upon titration of IVGG.147A into the reaction
prethrombin-2	–	initial rate of hydrolysis (Vi) of Ile-Pro-Arg-pNA, 100 nM enzyme, 2 mM substrate (IVGG.147A peptide): the initial rate of substrate hydrolysis (Vi) for both prethrombin-2 and Protein C zymogens significantly increased upon titration of IVGG.147A into the reaction
IIGGCPYWMDREECI-NH2 (disulfide 5-14, also called ZAP2.3; ZAP.-3) [ZAP.03 (cyclic 15-mer synthetic peptide)]	–	EC50, HeLa cell migration in an in vitro wound closure assay [1]: 0.06 µM; EC50, cell survival of BxPC3 cells during serum starvation [1]: 0.4 µM; fold improvement relative to IVGG.14 [2]: ~100 fold; Kd [3]: 0.3 µM
IVGGYAWWMDV-NH2 [IVGG.14 P6A variant]	–	activity (alanine scanning of the YPWWM turn motif), loss against IVGG.14 [4]: 25 fold
IVGGYPWAMDV-NH2 [IVGG.14 W8A variant]	–	activity (alanine scanning of the YPWWM turn motif), loss against IVGG.14 [4]: 10 fold
IIGGY[Hyp]WWMDV-NH2 (Printed as I I G G Y hyP W W M D V) [IIhyP.14 peptide]	–	fold better than IVGG.14 [2]: 7 fold; fold better than the previously described peptide activators [2]: > 400 fold; Kd [3]: 5 µM
IVDDYPWWMDV-NH2 [IVDD.14 peptide]	–	binding result [5]: no binding (tested: about 125 µM)
IVDGYPWWMDV-NH2 [IVDG.14 peptide]	–	Kd [3]: 85 µM
IVGDYPWWMDV-NH2 [IVGD.14 peptide]	–	binding result [5]: no binding
B1	–	EC50, BxPC-3 cell survival assay, peptide titrated with scHGF [1]: ~20 µM; fold better than peptides previously described [2]: 100 fold; Kd [3]: 21 µM
B2	binds	–
IVGGY[Hyp]WWMDV-NH2 (Printed as I V G G Y hyP W W M D V) [IVhyP.14 peptide]	–	fold enhancement relative to IVGG.14 [2]: 2 fold; Kd [3]: 14 µM
B3	binds	–
B4	binds	–
B5	binds	–
B6	binds	–
B7	binds	–
B8	binds	–
B9	binds	–
B10	binds	–

Molecule	binding result [6]	also measured
B11	binds	–
B12	binds	–
B13	binds	–
B14	binds	–
B15	binds	–
B16	binds	–
B17	binds	–
B18	binds	–
B19	binds	–
B20	binds	–
B21	binds	–
B22	binds	–
IIGGDPYWVPHPGDA-NH2 [ZAP.01 (linear 15-mer synthetic peptide)]	–	Kd [3]: 6 µM
B23	binds	–
B24	binds	–
B25	binds	–
B26	binds	–
B27	binds	–
B28	–	Kd [3]: 59 µM
